Source: US20090042785A1 (Pieris, published 2009)

Assays:
[1] = biological target: T1, human CTLA-4-Fc (Chimerigen) (human, UniProt P16410 36-161; P01857 99-330 = IgG part, limits assumed); experiment: SPR-Affinity towards hCTLA-4-Fc
T1 construct: extracellular domain;domain: Fc portion; Bought protein; also called hCTLA-4-Fc; huCTLA-4-Ig
Target sequence in this assay (P16410 other isoform, or with tags, fused parts or gaps mutant limits assumed): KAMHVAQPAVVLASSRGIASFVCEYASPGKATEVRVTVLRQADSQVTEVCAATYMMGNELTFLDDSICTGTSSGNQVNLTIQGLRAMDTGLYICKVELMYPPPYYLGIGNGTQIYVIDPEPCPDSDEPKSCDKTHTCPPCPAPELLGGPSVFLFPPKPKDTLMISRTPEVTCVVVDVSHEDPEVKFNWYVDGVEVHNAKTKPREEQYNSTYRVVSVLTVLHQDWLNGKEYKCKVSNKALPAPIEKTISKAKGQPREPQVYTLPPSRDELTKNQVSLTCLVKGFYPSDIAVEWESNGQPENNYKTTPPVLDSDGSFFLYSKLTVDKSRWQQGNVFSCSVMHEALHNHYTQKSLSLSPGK

[2] = biological target: T1, human CTLA-4-Fc (Chimerigen); experiment: SPR as in Example 9
Target sequence in this assay (P16410 other isoform, or with tags, fused parts or gaps mutant limits assumed): as above

[3] = biological target: T2, mCTLA-4-Fc (R&D Systems) (mouse, UniProt P09793 36-162); experiment: SPR as in Example 9
T2 sequence (P09793 whole entry): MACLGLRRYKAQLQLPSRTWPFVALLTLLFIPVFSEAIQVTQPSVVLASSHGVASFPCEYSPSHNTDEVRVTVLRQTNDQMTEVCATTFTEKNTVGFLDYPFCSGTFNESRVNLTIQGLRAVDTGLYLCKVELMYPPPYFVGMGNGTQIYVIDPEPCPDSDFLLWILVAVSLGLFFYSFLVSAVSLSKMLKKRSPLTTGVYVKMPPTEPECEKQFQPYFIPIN

[4] = biological target: T1, human CTLA-4-Fc (Chimerigen); experiment: competition FACS: 2.5 nM human CTLA-4 Fc pre-incubated with the antagonist, then staining of Raji cells; % inhibition of CTLA-4 Fc binding; blocked ligands B7.1 and B7.2
[5] = biological target: T1, human CTLA-4-Fc (Chimerigen); experiment: ELISA towards hCTLA-4-Fc
Target sequence in this assay (P16410 other isoform, or with tags, fused parts or gaps mutant limits assumed): as the sequence (P16410 other isoform, or with tags, fused parts or gaps mutant limits assumed) above

[6] = biological target: T1, human CTLA-4-Fc (Chimerigen); experiment: SPR; KD listed beside Tm
Target sequence in this assay (P16410 other isoform, or with tags, fused parts or gaps mutant limits assumed): as above

[7] = biological target: T2, mCTLA-4-Fc (R&D Systems); experiment: SPR; KD listed beside Tm
[8] = biological target: T1, human CTLA-4-Fc (Chimerigen); experiment: SPR, Fc fusion captured via anti-human IgG Fc
Target sequence in this assay (P16410 other isoform, or with tags, fused parts or gaps mutant limits assumed): as above

[9] = biological target: T2, mCTLA-4-Fc (R&D Systems); experiment: SPR, Fc fusion captured via anti-human IgG Fc
[10] = biological target: T1, human CTLA-4-Fc (Chimerigen); experiment: competition FACS: HuCTLA4-Ig 10 ug/ml pre-incubated with the antagonist, then staining of P815 cells transfected with human B7.2; blocked ligand B7.2
[11] = biological target: T3, human CTLA-4 on the cell surface (transfected CHO and A431 cells; CD152-expressing cells of human tonsil) (human, UniProt P16410 36-223); experiment: indirect immunoperoxidase staining of cryosections; column Negative Control Antibody [Isotype-matched hNGALwt_58]
T3 construct: whole, on cells; also called CHO-hCTLA-4; CHO::hCTLA-4
T3 sequence (looked up): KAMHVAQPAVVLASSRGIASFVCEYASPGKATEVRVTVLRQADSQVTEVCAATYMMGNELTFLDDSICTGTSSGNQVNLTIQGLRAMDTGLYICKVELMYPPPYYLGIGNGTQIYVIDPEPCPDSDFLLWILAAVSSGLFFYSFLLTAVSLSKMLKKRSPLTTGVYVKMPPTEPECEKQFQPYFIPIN

[12] = biological target: T1, human CTLA-4-Fc (Chimerigen); experiment: FACS competition: inhibition of 2.5 nM hCTLA-4 Fc binding to Raji cells (B7.1, B7.2)
[13] = biological target: T1, human CTLA-4-Fc (Chimerigen); experiment: SPR-Affinity of the monomer towards hCTLA-4-Fc
Target sequence in this assay (P16410 other isoform, or with tags, fused parts or gaps mutant limits assumed): as the sequence (P16410 other isoform, or with tags, fused parts or gaps mutant limits assumed) above

[14] = biological target: T4, mouse CTLA-4 Fc (Chimerigen) (mouse, UniProt P09793 36-161); experiment: FACS competition: inhibition of 2.5 nM mCTLA-4 Fc binding to Raji cells (B7.1, B7.2)
T4 construct: also called muCTLA-4-Ig; muCTLA-4-Fc; not shown: Fc part not described; detected with anti-mouse IgG-phycoerythrin

[15] = biological target: T1, human CTLA-4-Fc (Chimerigen); experiment: SPR-Affinity of the PEGylated monomer towards hCTLA-4-Fc
[16] = biological target: T1, human CTLA-4-Fc (Chimerigen); experiment: Affinity-ELISA of the PEGylated monomer towards hCTLA-4-Fc

B1: hNGAL mutein S140.4-O10 (designed binder)
chain: QDSTSDLIPAPPLSKVPLQQNFQDNQFHGKWYVVGLAGNRILRDDQHPMNMYATIYELKEDKSYNVTSVISSHKKCEYTIATFVPGSQPGEFTLGNIKSYGDKTSYLVRVVSTDYNQYAVVFFKLAEDNAEFFAITIYGRTKELASELKENFIRFSKSLGLPENHIVFPVPIDQCIDG
notes: also called Onc I-002
Kd [1]: 3.7 nM | Kd [2]: 8.3 nM | koff [2]: 0.000221 s⁻¹ | kon [2]: 15300 M⁻¹ s⁻¹ | Kd [3]: 40.8 nM | koff [3]: 0.00049 s⁻¹ | kon [3]: 11900 M⁻¹ s⁻¹ | IC50 (read off the curve) [4]: ~2 nM | ELISA affinities [5]: 3.8 nM | Kd [6]: 8.3 nM | Kd [7]: 40.8 nM

B2: S140.4-O10 site-directed PEGylated at Cys 87 with 20k PEG (designed binder)
chain: QDSTSDLIPAPPLSKVPLQQNFQDNQFHGKWYVVGLAGNRILRDDQHPMNMYATIYELKEDKSYNVTSVISSHKKCEYTIATFVPGCQPGEFTLGNIKSYGDKTSYLVRVVSTDYNQYAVVFFKLAEDNAEFFAITIYGRTKELASELKENFIRFSKSLGLPENHIVFPVPIDQCIDGSAWSHPQFEK
modifications: chain 1 pos 87: Cys carrying linear 20 kDa PEG-maleimide, written C
notes: also called O10_PEG(20k); S140.4-O10-PEG (20k)
Kd [1]: 11 nM | IC50 (read off the curve) [4]: ~4 nM | ELISA affinities [5]: 3.6 nM

B3: S140.4-O10-ABD (fusion with the albumin binding domain of streptococcal protein G) (designed binder)
chain: QDSTSDLIPAPPLSKVPLQQNFQDNQFHGKWYVVGLAGNRILRDDQHPMNMYATIYELKEDKSYNVTSVISSHKKCEYTIATFVPGSQPGEFTLGNIKSYGDKTSYLVRVVSTDYNQYAVVFFKLAEDNAEFFAITIYGRTKELASELKENFIRFSKSLGLPENHIVFPVPIDQCIDGSGGAVDANSLAEAKVLANRELDKYGVSDYYKNLINNAKTVEGVKALIDEILAALPSAWSHPQFEK
notes: Original linker of protein G between mutein and ABD; also called Onc I-004
Kd [1]: 8.9 nM | IC50 (read off the curve) [4]: ~4 nM | ELISA affinities [5]: 3.3 nM

B4: hNGAL mutein S94.7-Q13 (designed binder)
chain: QDSTSDLIPAPPLSKVPLQQNFQDNQFHGKWYVVGLAGNRILRDDQHPMNMYATIYELKEDKSYNVTSVIFPHKKCEYTIATFVPGSQPGEFTLGNIKSYGDKTSYLVRVVSTNYNQHATVFFKLAEDNAEFFAITIYGRTKELASELKENFIRFSKSLGLPENHIVFPVPIDQCIDGSAWSHPQF
notes: also called CTLA-4-Q13
Kd [8]: 11.8 nM | koff [8]: 7.1e-05 s⁻¹ | kon [8]: 6000 M⁻¹ s⁻¹ | Kd [9]: 39.5 nM | koff [9]: 0.00017 s⁻¹ | kon [9]: 4300 M⁻¹ s⁻¹ | IC50 (read off the curve) [10]: ~5 µg/mL

B5: control lipocalin hNGAL wt58 (other)
chain: QDSTSDLIPAPPLSKVPLQQNFQDNQFHGKWYVVGLAGNAILREDKDPQKMYATIYELKEDKSYNVTSVLFRKKKCDYWIRTFVPGSQPGEFTLGNIKSYPGLTSYLVRVVSTNYNQHAMVFFKKVSQNREYFKITIYGRTKELASELKENFIRFSKSLGLPENHIVFPVPIDQCIDG
notes: also called hNGAL-58; hNGAL58
binding result [11]: no binding (tested: 40 µg/mL)

B6: hNGAL mutein S140.4-O10 without T7 tag (designed binder)
chain: B1 chain
notes: also called S140.4-O10 (-T7 tag); S140.4-O10(-T7)
IC50 [12]: 2.5 nM | Kd [13]: 3 nM | Kd [2]: 3.9 nM | koff [2]: 0.000108 s⁻¹ | kon [2]: 27700 M⁻¹ s⁻¹ | Kd [3]: 15.3 nM | koff [3]: 0.000416 s⁻¹ | kon [3]: 27200 M⁻¹ s⁻¹ | IC50 [14]: 15.5 nM

B7: S140.4-O10 site-directed PEGylated at Cys 87 with 12k PEG (designed binder)
chain: B2 chain
modifications: chain 1 pos 87: Cys carrying linear 12k PEG-maleimide on its thiol, written C
notes: also called O10_PEG(12k); O10_S87C PEGylated monomer
Kd [1]: 20 nM | Kd [15]: 26 nM | ELISA-Affinity PEGylated Monomer [16]: 52 nM | ELISA affinities [5]: 3.2 nM

B8: S140.4-O10 site-directed PEGylated at Cys 87 with 30k PEG (designed binder)
chain: B2 chain
modifications: chain 1 pos 87: Cys carrying linear 30 kDa PEG-maleimide, written C
notes: also called O10_PEG(30k); S140.4-O10-PEG(30k)
ELISA affinities [5]: 3 nM
